{"source": "paper doi:10.1101/585943", "about": "(bioRxiv, 2019)", "proteins": {"B1": {"name": "SgrAI, type II restriction endonuclease, his-tagged wild type (enzyme, Streptomyces griseus)", "chain": "PFTYSIEATRNLATTERCIQDIRNAPVRNRSTQFQLAQQNMLAYTFGEVIPGFASAGINGMNYRDVIGRPVENAVTEGTHFFRDDFRVDSNAKAKVAGDIFEIVSSAVMWNCAARWNSLMVGEGWRSQPRYSRPTLSPSPRRQVAVLNLPRSFDWVSLLVPESQEVIEEFRAGLRKDGLGLPTSTPDLAVVVLPEEFQNDEMWREEIAGLTRPNQILLSGAYQRLQGRVQPGEISLAVAFKRSLRSDRLYQPLYEANVMQLLLEGKLGAPKVEFEVHTLAPEGTNAFVTYEAASLYGLAEGRSAVHRAIRELYVPPTAADLARRFFAFLNERMELVNG"}}, "target": "the molecule itself", "assay": "cryo-EM structure", "data": [{"protein": "B1", "values": [{"measurement": "binding result", "result": "binds"}]}]}
